The record followed here is patent US20240342244A1, “Isthmin Protein Therapeutics for the Treatment of Non-Alcoholic Fatty Liver Disease” (The Board of Trustees of the Leland Stanford Junior …, priority 2021, published 2024).

The test system of series [1] is pAKT^S473. The series is described as follows: pAKT S473 western blot in primary mouse adipocytes. The format is cell-based. Here is the method:
Mouse and human pre-adipocytes culture and differentiation. Inguinal fat pads from 4-8 week old C57BL/6J male and female mice were dissected and mechanically digested for 10 min using spring scissors. Digested tissues were incubated in WAT isolation buffer (10 ml PBS, 2.4 U/ml dispase II (#04942078001, Roche), 10 mg/ml collagenase D (#11088858001, Roche) at 37° C. for 45 min. 20 mL growth media was added and the tissue suspension was filtered through a 100-μm cell strainer and centrifuged at 600×g for 5 min. The cell pellets were resuspended in 20 mL growth media, filtered through a 40-μm cell strainer, centrifuged at 600×g for 5 min, resuspended in 10 mL growth media, and plated in 10-cm collagen-coated dishes. The cells were cultured in growth media (DMEM/F-12 Glutamax, Thermo Fisher Scientific #10565018) supplemented with 10% fetal bovine serum. Two days post-confluency, differentiation was induced with growth media containing 1 μM rosiglitazone, 0.5 mM isobutylmethylxanthine, 1 μM dexamethasone, 5 μg/mL insulin. After two days, cells were re-fed with growth media containing 1 μM rosiglitazone and 5 μg/mL insulin. […]
Western blots and molecular analyses. […] For Western blotting of plasma samples, 1 μl of plasma was prepared in 2× sample buffer (Invitrogen) with reducing agent, boiled, and analyzed using Western blot against indicated antibody. […]

Series [2] has as its system pAKTS473. The series is described as follows: In vivo pAKT S473 signaling in tissues after I.V. injection in DIO mice. Also noted: species or system mouse. Here is the method:
(§1) Western blots and molecular analyses. For western blotting, homogenized tissues or whole-cell lysates, samples were lysed in RIPA buffer containing protease inhibitor cocktail (Roche) and phosphatase inhibitor cocktail (Roche). Cell lysates were centrifuged at 14,000×g for 15 min and supernatants were prepared in 4×LDS Sample Buffer (Invitrogen) and separated by SDS-PAGE and transferred to Immobilon 0.45 μm membranes (Millipore). For Western blotting of plasma samples, 1 μl of plasma was prepared in 2× sample buffer (Invitrogen) with reducing agent, boiled, and analyzed using Western blot against indicated antibody. Protein kinase array (R&D systems ARY003B) was performed according to the manufacturers' description. All antibodies used in this paper are described in STAR methods.

The subject of series [3] is pAKT^S473. The series is described as follows: pAKT S473 western blot in C2C12 skeletal muscle cells. To be noted: 100 nM, 5 min. Type of series: cell-based. As for the experimental part:
as §1
(In general: A western blot detects proteins with antibodies after separation by electrophoresis.)

The subject of series [4] is IGF-I-Receptor β Tyr1135/1136 or Insulin receptor Tyr1150/1151. Briefly: Western blot of phosphorylated insulin and IGF receptors in 3T3-F442A cells. Type of series: cell-based. Particulars: 100 nM; 2 minutes. As for the experimental part:
as §1

In series [5] the test system is GLUT4. The series is described as follows: GLUT4 translocation to the plasma membrane in primary adipocytes (immunostaining, fractionation). Particulars: 100 nM. The format is cell-based, mouse. As for the experimental part:
Biochemical analyses. Plasma insulin levels were measured using the Ultra-Sensitive Mouse Insulin ELISA kit (Crystal Chem Inc #90080). Plasma triglycerides were measured with Infinity triglyceride measurement kit (Thermo #TR22421) and tissue triglycerides were measured with a Triglyceride Colorimetric Assay Kit (Cayman #10010303). Lipolysis was measured in day 5 differentiated adipocytes after 4 hours of protein treatment using a glycerol release assay according to the protocol provided by the manufacturer (Abcam #ab133130). Plasma membrane protein extractions were performed according to the manufacturer's protocol (Abcam #ab65400).
Immunocytochemistry. Primary mouse preadipocytes were seeded onto collagen-coated 22 mm×22 mm coverslips and differentiated using the method above. On day 8, differentiated adipocytes were washed with PBS and starved in 0.5% BSA in KRH buffer (50 mM HEPES, 136 mM NaCl, 1.25 mM MgSO4, 1.25 mM CaCl2, 4.7 mM KCl, pH 7.4) for 3.5 h. Cells were treated with insulin or ISM1 for 30 min, followed by three washes with cold PBS. Cells were fixed with 4% PFA in PBS for 15 min at room temperature. After blocking with 2% BSA, 5% goat serum, 0.2% Triton-X in PBS for 1 hr, cells were incubated with diluted primary antibody at 4° C. overnight. The next day, cells were washed and incubated with secondary antibody on ice for 1 hr. Cells were imaged using confocal microscope (Leica TCS SP8). Hoechst (#33342, thermo fisher) was used as counterstain.

The test system of series [6] is human primary skeletal muscle cells. Briefly: 2-deoxy-3H-glucose uptake in human primary skeletal muscle cells. Type of series: cell-based. Particulars: for induction of glucose uptake compared with control cells: 1 h.
The nature of series [7]: Observation of hypoglycemia in overexpression or pharmacological administration studies. Particulars: overexpression or pharmacological administration of ISM1. Type of series: in vivo, mouse.
Series [8] deals with pS6^S235/S236. The series is described as follows: Acute and long-term signaling in AML12 hepatocytes (western blot). The format is cell-based, mouse. As for the experimental part:
as §1

B1: ISM1: recombinant mouse ISM1 protein with a C-terminal myc-his tag generated in mammalian HEK 293 Expi cells (protein, UniProt A2ATD1 30-454, looked up)
Isthmin-1: SDRQDAAAGNNNLNLESDSTSETSFPLSKEAPEEHQVVHQPFPRQRFPPETGHPSLQRDGPRSFLLDLPNFPDLSKADINGQNPNIQVTIEVVDGPDSEAEKDQHPENKPSWSLPAPDWRAWWQRSLSLARTNSGDQDDKYDSTSDDSNFLSVPRGWDRPAPGHRTFETKEQPEYDSTDGEGDWSLWSVCSVTCGNGNQKRTRSCGYACIATESRTCDRPNCPGIEDTFRTAATEVSLLAGSEEFNATKLFEVDMDSCERWMSCKSEFLKKYMHKVINDLPSCPCSYPTEVAYSTADIFDRIKRKDFRWKDASGPKEKLEIYKPTARYCIRSMLSLESTTLAAQHCCYGDNMQLITRGKGAGTPNLISTEFSAELHYKVDVLPWIICKGDWSRYNEARPPNNGQKCTESPSDEDYIKQFQEAREY
modifications: C-terminal myc-His tag
notes: recombinant mouse ISM1 protein with a C-terminal myc-his tag generated in mammalian HEK 293 Expi cells
B1: the “pAKT^S473 induction” value in series [1] (differentiated primary mouse brown adipocytes), in series [1] (white adipocytes) and in series [3] was “induced pAKT^S473” throughout. The “pAKTS473 signaling in BAT and liver” value in series [2] (10 mg/kg I.V., 10 min time point) was “transient inductions”. In addition, in series [2] (10 mg/kg I.V., DIO mice), the “pAKTS473 signaling in iWAT and skeletal muscle” value is “activates pAKTS473 signaling at 30 and 60 min”. Besides, the “dose inducing the highest pAKTS473 response” value in series [2] (doses ranging from 0.1 mg/kg to 10 mg/kg, iWAT) turned out to be 5 mg/kg. Besides, the IGF-R/IR phosphorylation entry in series [4] is recorded as “no phosphorylation”. Besides, in series [5] (4 h), the “GLUT4 in plasma membrane fraction (biochemical fractionation)” value is listed as “translocation of GLUT4 to the plasma membrane”. The “GLUT4 at cell surface (immunostaining, confocal microscopy)” value in series [5] (compared with control cells) is on record as “higher levels of GLUT4 at cell surface”. For the same molecule, the “induction of glucose uptake compared with control cells” value came out at 5 fold in series [6] (50 nM) and 7 fold in series [6] (200 nM). Moreover, in series [6] (human skeletal muscle cells), the “effect on glucose uptake relative to that of insulin” value is 70%. Also, the hypoglycemia result in series [7] is on record as “do not observe hypoglycemia”. Besides, in series [8] (24 h treatment), the “pS6^S235/S236 after long-term treatment” value is “induces hyperactivation of pS6^S235/S236”. In addition, the “acute signaling added to insulin” value in series [8] (insulin 1 nM up to 100 nM with 25 nM or 50 nM ISM1, 5 min) is listed as “do not result in any additional signaling changes”.
